The assay concerns the target sc23a_mouse Sec23a (UniProt Q01405).

Sequence of sc23a_mouse Sec23a (Q01405 whole entry): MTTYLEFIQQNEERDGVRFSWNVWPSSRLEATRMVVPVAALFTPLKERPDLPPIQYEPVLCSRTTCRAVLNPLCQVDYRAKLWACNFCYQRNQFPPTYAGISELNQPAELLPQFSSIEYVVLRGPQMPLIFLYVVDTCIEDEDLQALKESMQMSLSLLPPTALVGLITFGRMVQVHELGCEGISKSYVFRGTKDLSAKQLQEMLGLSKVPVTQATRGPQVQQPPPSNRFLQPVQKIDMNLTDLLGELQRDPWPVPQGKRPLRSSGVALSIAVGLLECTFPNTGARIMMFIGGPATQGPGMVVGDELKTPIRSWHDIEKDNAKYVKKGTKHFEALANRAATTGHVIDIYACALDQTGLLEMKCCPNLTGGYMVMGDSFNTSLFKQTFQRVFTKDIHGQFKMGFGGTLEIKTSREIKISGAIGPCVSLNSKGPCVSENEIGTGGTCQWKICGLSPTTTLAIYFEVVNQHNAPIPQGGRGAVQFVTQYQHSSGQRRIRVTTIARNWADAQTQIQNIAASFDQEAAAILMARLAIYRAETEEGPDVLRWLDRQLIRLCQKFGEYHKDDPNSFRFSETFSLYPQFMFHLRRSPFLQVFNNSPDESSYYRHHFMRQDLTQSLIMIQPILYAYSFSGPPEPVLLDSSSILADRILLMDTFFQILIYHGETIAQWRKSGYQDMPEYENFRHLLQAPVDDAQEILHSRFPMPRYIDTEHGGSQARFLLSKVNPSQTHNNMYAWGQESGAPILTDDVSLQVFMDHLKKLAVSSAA

“Small COPII coat GTPase SAR1A (Homo sapiens), Q9NR31 T39N”: the “effect of a mutation on the interaction” value is on record as “disrupting interaction”.

For the origin of these results see IntAct's records for PubMed 19822759.
